Experimental data taken from article PMC10215317, “The Rhodanese PspE Converts Thiosulfate to Cellular Sulfane Sulfur in Escherichia coli” (Antioxidants, 2023).

B1: ΔNS-PspE (Escherichia coli K-12) (protein)
chain: AEHWIDVRVPEQYQQEHVQGAINIPLKEVKERIATAVPDKNDTVKVYCNAGRQSGQAKEILSEMGYTHVENAGGLKDIAMPKVKG
notes: Ni-NTA and Superdex 200
B2: GlpE (Escherichia coli K-12) (protein)
chain: MDQFECINVADAHQKLQEKEAVLVDIRDPQSFAMGHAVQAFHLTNDTLGAFMRDNDFDTPVMVMCYHGNSSKGAAQYLLQQGYDVVYSIDGGFEAWQRQFPAEVAYGA
notes: intact gene (324 bp), C-terminal His6 tag kept, pET30a, E. coli BL21(DE3); Ni-NTA and Superdex 200

Substrate: O=S(O)(O)=S
Experiment: purified protein
Format: biochemical, Escherichia coli
Settings: 100 mM GSH fixed, 0.4 mM lead acetate, 100 mM HEPES pH 7.4, 37 °C

Protein | Km [mM] | kcat [s⁻¹] | kcat/Km [M⁻¹ s⁻¹]
B1 | 7.8 ± 1.6 | 0.04 | 4.8
B2 | 33.6 ± 7.0 | 0.02 | 0.7
